Measurements taken from PMC8933513 (2022).

Experiments:
Test in all cases: SPR
[1] = target: T1, pAPN ectodomain E421A mutant (pig, UniProt P15145 58-961, E421A)
T1 sequence: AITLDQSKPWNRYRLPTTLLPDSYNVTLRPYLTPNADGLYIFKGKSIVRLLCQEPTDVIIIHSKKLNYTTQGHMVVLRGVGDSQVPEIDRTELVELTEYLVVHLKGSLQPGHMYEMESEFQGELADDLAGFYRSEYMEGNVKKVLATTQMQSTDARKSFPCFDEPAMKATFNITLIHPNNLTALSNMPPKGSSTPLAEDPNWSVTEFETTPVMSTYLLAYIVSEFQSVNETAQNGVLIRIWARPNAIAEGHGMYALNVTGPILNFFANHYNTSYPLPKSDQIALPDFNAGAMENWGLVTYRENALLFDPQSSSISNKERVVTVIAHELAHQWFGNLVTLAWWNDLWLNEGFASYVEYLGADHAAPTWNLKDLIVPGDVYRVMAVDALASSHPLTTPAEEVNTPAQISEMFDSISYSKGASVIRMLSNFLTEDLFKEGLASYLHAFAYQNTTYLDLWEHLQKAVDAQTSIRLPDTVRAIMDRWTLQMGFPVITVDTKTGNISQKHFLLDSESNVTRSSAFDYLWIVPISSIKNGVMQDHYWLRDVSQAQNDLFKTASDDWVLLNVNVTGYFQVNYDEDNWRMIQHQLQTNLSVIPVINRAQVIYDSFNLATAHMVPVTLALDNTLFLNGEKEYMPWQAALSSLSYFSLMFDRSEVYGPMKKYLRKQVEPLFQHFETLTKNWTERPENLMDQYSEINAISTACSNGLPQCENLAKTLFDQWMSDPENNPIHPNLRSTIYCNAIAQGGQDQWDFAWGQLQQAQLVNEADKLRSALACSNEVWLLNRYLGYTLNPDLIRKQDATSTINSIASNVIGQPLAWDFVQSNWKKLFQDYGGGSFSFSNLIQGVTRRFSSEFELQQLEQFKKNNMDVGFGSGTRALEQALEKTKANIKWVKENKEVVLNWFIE

[2] = target: hAPN ectodomain K379A mutant (human, UniProt P15144 62-963, K379A)
[3] = target: hAPN ectodomain E745A mutant (human, UniProt P15144 62-963, E745A)
[4] = target: T2, human aminopeptidase N (hAPN) ectodomain, residues 62-963, wild type (human, UniProt P15144 62-963)
T2 chain: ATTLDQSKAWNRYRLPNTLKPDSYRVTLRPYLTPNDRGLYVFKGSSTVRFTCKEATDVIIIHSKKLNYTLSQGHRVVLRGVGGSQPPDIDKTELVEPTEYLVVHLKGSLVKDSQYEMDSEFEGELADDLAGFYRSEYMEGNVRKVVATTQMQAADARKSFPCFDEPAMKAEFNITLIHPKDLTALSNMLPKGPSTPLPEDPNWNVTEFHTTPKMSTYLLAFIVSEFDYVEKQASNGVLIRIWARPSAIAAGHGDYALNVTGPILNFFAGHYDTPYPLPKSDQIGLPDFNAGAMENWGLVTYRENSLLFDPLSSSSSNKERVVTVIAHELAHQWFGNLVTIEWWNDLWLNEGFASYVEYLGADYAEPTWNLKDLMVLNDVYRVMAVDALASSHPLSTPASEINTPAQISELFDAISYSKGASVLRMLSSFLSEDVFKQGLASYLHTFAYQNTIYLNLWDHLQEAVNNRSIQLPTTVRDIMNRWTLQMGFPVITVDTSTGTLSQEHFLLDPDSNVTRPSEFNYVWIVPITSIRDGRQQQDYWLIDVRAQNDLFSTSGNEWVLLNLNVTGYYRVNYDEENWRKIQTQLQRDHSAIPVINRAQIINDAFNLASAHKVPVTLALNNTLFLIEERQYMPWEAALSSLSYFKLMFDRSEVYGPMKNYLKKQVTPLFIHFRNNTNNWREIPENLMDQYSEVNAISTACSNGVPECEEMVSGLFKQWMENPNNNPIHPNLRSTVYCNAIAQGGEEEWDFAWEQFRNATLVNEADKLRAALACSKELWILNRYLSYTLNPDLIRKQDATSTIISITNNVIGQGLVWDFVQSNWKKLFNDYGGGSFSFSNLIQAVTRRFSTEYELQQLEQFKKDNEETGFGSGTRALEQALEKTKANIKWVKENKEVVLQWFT

[5] = target: hAPN ectodomain W429A mutant (human, UniProt P15144 62-963, W429A)
[6] = target: hAPN ectodomain E426A mutant (human, UniProt P15144 62-963, E426A)
[7] = target: hAPN ectodomain E742A mutant (human, UniProt P15144 62-963, E742A)

Sequence of hAPN ectodomain W429A mutant (P15144 62-963 W429A): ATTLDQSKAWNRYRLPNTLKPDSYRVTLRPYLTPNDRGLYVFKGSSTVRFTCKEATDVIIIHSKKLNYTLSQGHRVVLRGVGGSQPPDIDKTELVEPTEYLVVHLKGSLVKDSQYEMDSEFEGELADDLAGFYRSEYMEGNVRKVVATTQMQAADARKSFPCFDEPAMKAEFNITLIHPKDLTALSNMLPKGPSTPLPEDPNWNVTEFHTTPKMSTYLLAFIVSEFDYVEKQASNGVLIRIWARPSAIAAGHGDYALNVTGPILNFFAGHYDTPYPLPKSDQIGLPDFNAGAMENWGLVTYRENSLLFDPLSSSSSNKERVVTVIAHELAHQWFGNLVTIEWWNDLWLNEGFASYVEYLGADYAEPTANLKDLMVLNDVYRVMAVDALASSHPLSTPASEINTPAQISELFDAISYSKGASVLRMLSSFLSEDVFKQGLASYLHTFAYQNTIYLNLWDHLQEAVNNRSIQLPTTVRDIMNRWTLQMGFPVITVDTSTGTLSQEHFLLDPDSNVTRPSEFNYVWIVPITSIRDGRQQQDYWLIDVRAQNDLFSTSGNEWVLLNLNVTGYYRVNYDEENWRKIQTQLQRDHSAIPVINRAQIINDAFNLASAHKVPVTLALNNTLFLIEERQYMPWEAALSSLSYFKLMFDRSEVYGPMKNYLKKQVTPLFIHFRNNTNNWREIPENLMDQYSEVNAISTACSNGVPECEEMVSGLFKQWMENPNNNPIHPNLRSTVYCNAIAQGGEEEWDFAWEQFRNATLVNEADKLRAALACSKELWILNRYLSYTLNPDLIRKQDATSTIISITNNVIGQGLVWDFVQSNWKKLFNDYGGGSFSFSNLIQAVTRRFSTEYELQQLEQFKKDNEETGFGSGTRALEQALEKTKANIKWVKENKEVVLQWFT
Sequence of hAPN ectodomain K379A mutant (P15144 62-963 K379A): as the sequence (P15144 62-963 W429A) above, with K318A, A368W counted along it
Sequence of hAPN ectodomain E745A mutant (P15144 62-963 E745A): as the sequence (P15144 62-963 W429A) above, with A368W, E684A counted along it

B1: PDCoV spike (S) protein receptor binding domain (RBD), residues 300-419, wild type (domain or fragment)
chain: PKLPELEVVQLNISAHMDFGEARLDSVTINGNTSYCVTKPYFRLETNFMCTGCTMNLRTDTCSFDLSAVNNGMSFSQFCLSTESGACEMKIIVTYVWNYLLRQRLYVTAVEGQTHTGTTS
- Kd [1]: 125 µM
- Kd [2]: 444 µM
- Kd [3]: 3.06 µM
- Kd [4]: 3.71 µM
- Kd [5]: 127 µM
- Kd [6]: 334 µM
- Kd [7]: 13.7 µM
